# Reference: patent publication US20210363269A1 (ALX ONCOLOGY, published 2021)
# Substitutions are numbered along the chain they refer to.
# B1: antibody 136 variant, light chain Mut / heavy chain wt (antibody, V domains shown)
# VH: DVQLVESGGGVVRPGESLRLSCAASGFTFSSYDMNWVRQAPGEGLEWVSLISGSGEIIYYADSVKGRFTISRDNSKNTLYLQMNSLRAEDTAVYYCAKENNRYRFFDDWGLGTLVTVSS
# VL: EIVLTQSPGTLSLSPGERATLSCRASQSVYTYLAWYQQKPGQAPRLLIYGASSRATGIPDRFSGSGSGTEFTLTISSLQSEDFAVYYCQQYYDRPPLTFGGGTKVEIK
# B2: antibody 121 (antibody, V domains shown)
# VH: VQLVESGGGVVQPGGSLRLSCAASGFSFSNFAMTWVRQAPGEGLEWVSTIGSGDTYYADSVKGRFTISRDNSKNTLYLQMNSLRAEDTAVYYCAKDSTVSWSGDFFDYWGLGTLVTVSS
# VL: EIVLTQSPATLSVSPGERATFSCRASQNVKNDLAWYQQRPGQAPRLLIYAARIRETGIPERFSGSGSGTEFTLTITSLQSEDFAVYYCQQYYDWPPFTFGGGTKVEIK
# notes: also called S121
# B3: antibody 120 (antibody, V domains shown)
# VH: B2 VH with L114R
# VL: B2 VL
# notes: also called S120
# B4: antibody 132 (antibody, V domains shown)
# VH: DVQLVESGGGVVRPGESLRLSCAASGFSFRSYAMNWVRQAPGEGLEWVSRINSGGGGTDYADSVKGRFTISRDNSKNTLYLQMNSLRAEDTAVYYCAKQYDWNSFFDYWGLGALVTVSS
# VL: ETVLTQSPATLSVSPGERATLSCRASQTVGSKLAWHQQKPGQAPRLLIYDASNRATGIPDRFSGSGSGTDFTLTISSPQTEDSAVYYCQQYYYWPPYRFGGGTKVEIK
# notes: also called AB132; S132
# B5: AB21c (antibody, mouse IgG2a, V domains shown)
# VH: DVQLVESGGGVVRPGESLRLSCAASGFTFSSNAMSWVRQAPGKGLEWLAGISAGGSDTYYPASVKGRFTISRDNSKNTLYLQMNTLTAEDTAVYYCARETWNHLFDYWGLGTLVTVSS
# VL: ALTQPASVSANPGETVKIACSGGDYYSYYYGWYQQKAPGSALVTVIYSDDKRPSDIPSRFSGSASGSTATLTITGVRAEDEAVYYCGGYDYSTYANAFGAGTTLTVL
# notes: Full-length mouse IgG2a
# B6: AB66c (antibody, mouse IgG2a, V domains shown)
# VH: B5 VH with N32Y, P61I, A62D, S75P, T78S, N84S, T85S
# VL: ALTQPASVSANPGETVKITCSGGDYYSTYYAWYQQKSPGSAPVTVIHSDDKRPSDIPSRFSGSASGSAATLIITGVRVEDEAVYYCGGYDGRTYINTFGAGTTLTVL
# notes: Full-length mouse IgG2a
# B7: AB27c (antibody, mouse IgG2a, V domains shown)
# VH: DVQLVESGGGVVRPGESLRLSCAVSGFRFSSYAMSWVRQAPGKGLEWVSGISSGGDTYYVDSVKGRFTISRDNSKNTLYLQVNSLTAEDTAIYYCARETWNHLFDYWGLGTLVTVSS
# VL: ALTQPASVSADLGETVKITCSGGDSSSHYYGWYQQKSPGSAPVTVIYSDDERPSDIPSRFSGSASGSTATLTITGVRVEDEAIYYCGAYDGSTYANTFGAGTTLTVL
# notes: Full-length mouse IgG2a
# B8: AB25c (antibody, mouse IgG2a, V domains shown)
# VH: DVQLVESGGGVVRPGESLRLSCEASGFTFSSNAMSWVRQAPGKGLEWVAGISSGSDTYYGDSVKGRLTISRDNSKNILYLQMNSLTAEDTAVYYCARETWNHLFDYWGLGTLVTVSS
# VL: ALTQPASVSANPGETVEITCSGGSYSSYYYAWYQQKSPGSAPVTLIYSDDKRPSNIPSRFSGSASGSTATLTITGVRAEDEAVYFCGGYDQSSYTNPFGAGTTLTVL
# notes: Full-length mouse IgG2a
# B9: AB3c (antibody, mouse IgG2a, V domains shown)
# VH: AVTLDESGGGLQTPGGALSLVCKASGFIFSDYGMNWVRQAPGKGLEFVAQITSGSRTYYGAAVKGRATISRDNRQSTVKLQLNNLRAEDTGIYFCARDFGSGVGSIDAWGNGTEVIVSS
# VL: ALTQPASVSANLGGTVKITCSGSRGRYGWYQQRSPGSAPVTVIYRDNQRPSNIPSRFSSSTSGSTSTLTITGVQADDESVYFCGSYDGSIDIFGAGTTLTVL
# notes: Full-length mouse IgG2a
# B10: antibody 163 (antibody, V domains shown)
# VH: DVQLVESGGGLVRPGESLRLSCAASGFTFTNYAVTWVRQAPGEGLEWVSLISVTGTTYYADSVKGRFTISRDNSKSTLYLQMNGLRAEDTAVYYCAKVTWKNVFDYWGLGTLVTVSS
# VL: EIVLTQSPGTLSVSPGERATFSCRASQTVGSKLAWYQQKPGQAPRLLIYDANTRATGIPARFSGSGSGTEFTLTISSLQSEDFAVYYCQQHTDWPPYTFGGGTKVEIK
# notes: also called S163
# B11: antibody 162 (antibody, V domains shown)
# VH: B10 VH with G84S
# VL: B10 VL
# notes: also called S162
# B12: antibody 164 (antibody, V domains shown)
# VH: B10 VH
# VL: B10 VL with G66R
# notes: also called S164
# Molecular target: T1, BALBc mouse SIRP-α (mouse (BALB/c strain))
# T1 chain: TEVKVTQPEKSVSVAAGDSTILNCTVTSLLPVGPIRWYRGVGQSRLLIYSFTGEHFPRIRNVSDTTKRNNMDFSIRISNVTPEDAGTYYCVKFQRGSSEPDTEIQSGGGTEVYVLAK
# Assay: SPR, antibody on GLC chip
# How it was run: (§1)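 On a ProteOn XPR36 biosensor, Protein A-purified antibodies were amine-coupled to a GLC chip at about ~1000 RU after dilution to 80 nM in 10 mM sodium acetate pH 4.5. SIRP analytes at 100, 33, 11, 3.7, 1.2 and 0 nM were then injected one-shot in PBS pH 7.4 containing 0.01% Tween-20 at 25° C, with 90 s of association at 100 μL/min and 1200 s of dissociation. The dissociation constant (KD) was calculated as kd/ka from a global Langmuir fit of double-referenced data.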
row,Binder,Kd [nM]
1,B1,2.8

# Molecular target: T2, human SIRP-α v1 (human, UniProt P78324 31-149)
# T2 construct: also called Human v1; Human V1
# T2 sequence (P78324 31-149 limits assumed): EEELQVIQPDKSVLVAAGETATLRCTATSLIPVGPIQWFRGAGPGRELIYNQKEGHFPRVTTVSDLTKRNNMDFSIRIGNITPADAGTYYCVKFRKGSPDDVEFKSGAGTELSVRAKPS
# Assay: SPR, antibody on GLC chip
# How it was run: as §1
row,Binder,Kd [nM]
1,B1,7.28

# Molecular target: T3, NOD mouse SIRP-α (mouse (NOD strain))
# T3 chain: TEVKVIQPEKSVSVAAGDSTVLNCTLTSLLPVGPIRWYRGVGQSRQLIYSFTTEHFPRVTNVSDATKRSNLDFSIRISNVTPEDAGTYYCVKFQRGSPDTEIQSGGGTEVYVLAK
# Assay: SPR, antibody on GLC chip
# How it was run: as §1
row,Binder,Kd [nM]
1,B1,4.12

# Molecular target: T4, human SIRPγ isoform 1 (human, UniProt Q9P1W8 29-147)
# T4 construct: also called Gamma; Human SIRPg
# T4 sequence (Q9P1W8 29-147 limits assumed): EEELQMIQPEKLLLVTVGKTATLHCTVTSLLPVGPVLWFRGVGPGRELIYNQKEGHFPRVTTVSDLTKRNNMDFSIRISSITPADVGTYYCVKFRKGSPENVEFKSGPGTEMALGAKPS
# Assay: SPR, antibody on GLC chip
# How it was run: as §1
row,Binder,Kd [nM]
1,B1,19.6

# Molecular target: T5, BL6 mouse SIRP-α (mouse (C57BL/6 strain), UniProt P97797 32-148)
# T5 construct: also called C57BL/6
# T5 sequence: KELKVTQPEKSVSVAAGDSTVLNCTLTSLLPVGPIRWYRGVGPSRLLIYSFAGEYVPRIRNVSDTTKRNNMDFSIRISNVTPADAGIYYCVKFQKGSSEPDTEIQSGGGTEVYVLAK
# Assay: SPR, antibody on GLC chip
# How it was run: as §1
row,Binder,Kd [nM]
1,B1,32.6

# Molecular target: T6, human SIRP-α v2 (human)
# T6 construct: also called Human v2; Human V2
# T6 sequence (chain, as listed by the source limits assumed): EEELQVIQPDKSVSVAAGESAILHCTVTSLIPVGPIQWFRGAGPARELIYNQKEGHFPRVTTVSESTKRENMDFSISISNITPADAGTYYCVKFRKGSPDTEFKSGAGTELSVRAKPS
# Assay: SPR, antibody on GLC chip
# How it was run: as §1
row,Binder,Kd [nM]
1,B1,17.4

# Molecular target: T2, human SIRP-α v1
# Assay: SPR
# How it was run: (§2)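 Purified antibodies were either amine-coupled to a GLC chip or captured via biotinylated Protein A on an NLC chip of a ProteOn XPR36 biosensor. Runs were at 25° C in PBS pH 7.4 with 0.01% Tween-20. SIRP analytes were injected in one-shot kinetic mode at nominal concentrations set by A280 absorbance. Double-referenced data were fitted globally to a simple Langmuir model, giving apparent rate constants, with KD taken as kd/ka.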
row,Binder,Kd [nM]
1,B2,0.157
2,B3,0.214
3,B4,0.426

# Molecular target: T6, human SIRP-α v2
# Assay: SPR
# How it was run: as §2
row,Binder,Kd [nM]
1,B2,0.0501
2,B3,0.0856
3,B4,1.86

# Molecular target: T7, C57BL/6 mouse SIRP-α D1 domain (mouse (C57BL/6 strain), UniProt P97797 32-148)
# T7 sequence: T5 sequence
# Assay: SPR, ProteOn, antibody on chip
# Experimental: (§3) All experiments were performed at 25° C. using a SPR-based ProteOn XPR36 biosensor (BioRad, Inc, Hercules, Calif.) equipped with GLC or NLC sensor chips. […] Purification was carried out by standard Protein A affinity column chromatography and eluted antibodies were stored in PBS buffer.
# (§4) The running buffer was PBS pH 7.4 with 0.01% Tween-20 (PBST+). All analytes were used at their nominal concentrations as determined by A280 Absorbance and using their molar calculated extinction coefficient.
# (§5) For the method using GLC chip, the analytes were injected and flowed over anti-SIRPα antibodies immobilized (˜1000 RUs) on GLC chips using Proteon™ Amine Coupling Kit. For the immobilization step, GLC chip was activated with EDAC/Sulpho-NHS 1:1 (Biorad) diluted 1/100 for 300 s at 25 μL/min. Anti-SIRPα antibodies were diluted to 80 nM concentration in 10 mM sodium acetate buffer pH 4.5 and immobilized to the chip at 30 μL/min for 50 s. Chip was inactivated with ethanolamine for 300 s at 25 μL/min. The analytes (e.g., SIRP-α from different species, SIRP-β, SIRP-γ) were injected in a “one-shot” kinetic mode at nominal concentrations of 100, 33, 11, 3.7, 1.2 and 0 nM. Association times were monitored for 90 s at 100 μL/min, and dissociation times were monitored for 1200 s. The surfaces were regenerated with a 2:1 v/v blend of Pierce IgG elution buffer/4M NaCl.
Binder,Kd [nM],koff [s⁻¹],kon [M⁻¹ s⁻¹]
B5,0.876,0.000241,276000
B6,5.8,0.000619,107000
B7,9.49,0.0014,147000
B8,2.81,0.000399,142000
B9,15,0.00619,412000

# Molecular target: T8, BALB/c mouse SIRP-α D1 domain (mouse (BALB/c strain))
# T8 chain: T1 chain
# Assay: SPR, ProteOn, antibody on chip
# Experimental: as §3, §4, §5
Binder,Kd [nM],koff [s⁻¹],kon [M⁻¹ s⁻¹]
B5,1.34,0.000618,462000
B6,3.41,0.000762,224000
B7,15,0.00226,150000
B8,9.64,0.00292,303000
B9,5.31,0.00412,776000

# Molecular target: T9, NOD mouse SIRP-α D1 domain (mouse (NOD strain))
# T9 chain: T3 chain
# Assay: SPR, ProteOn, antibody on chip
# Experimental: as §3, §5
# (§6) Next, the binding kinetics of various antibody clones to selected mouse SIRP-α proteins were determined as described above. Mouse proteins that were tested include BALBc (SEQ ID NO:10), BL6 (SEQ ID NO:9), NOD (SEQ ID NO:8), and m129 (SEQ ID NO:7) SIRP-α proteins. Antibody clones labeled as “c” were tested as full-length mouse IgG2a antibodies; antibody clones labeled as “a” were tested as full-length human IgG1 antibodies with L234A, L235A, G237A, and N297A mutations.
Binder,Kd [nM],koff [s⁻¹],kon [M⁻¹ s⁻¹]
B5,0.64,0.000479,749000
B6,0.564,0.000232,412000
B7,3.42,0.00101,296000
B8,3.9,0.00143,366000
B9,1.43,0.00143,999000

# Molecular target: T10, mouse 129 SIRP-α D1 domain (mouse (129 strain), UniProt P97797 32-150)
# T10 construct: also called m129
# T10 chain: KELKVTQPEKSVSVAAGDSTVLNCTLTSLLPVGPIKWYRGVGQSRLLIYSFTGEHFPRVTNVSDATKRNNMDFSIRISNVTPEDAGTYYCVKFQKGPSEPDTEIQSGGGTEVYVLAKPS
# Assay: SPR, ProteOn, antibody on chip
# Experimental: as §3, §5, §6
Binder,Kd [nM],koff [s⁻¹],kon [M⁻¹ s⁻¹]
B5,0.0588,3.31e-05,563000
B6,0.0955,1.98e-05,207000
B7,0.487,0.000101,207000
B8,0.0587,2.07e-05,352000
B9,22,0.0118,534000

# Molecular target: T11, mouse 129 SIRP-α (mouse (129 strain), UniProt P97797 32-150)
# T11 construct: also called m129
# T11 chain: T10 chain
# Assay: SPR Koff +/-
# How it was run: as §2
row,Binder,binding result
1,B2,no binding
2,B3,no binding
3,B4,no binding
4,B10,no binding
5,B11,no binding
6,B12,no binding
